The text below walks through data of patent US8802160B2 (Amorphical Ltd., priority 2007, dated 2014).

The nature of series [1]: In vitro calcium carbonate precipitation assay testing the stabilization of ACC. As to conditions: for effect on calcium carbonate precipitation (polymorph obtained): CaCl2 + Na2CO3 solution, SEM, Raman. It is filed as physicochemical. How it is done: Electron microscope images of the precipitates distinctly indicated different polymorph composition of calcium carbonate for the precipitation in the presence/absence of GAP65-enriched fractions (FIG. 7).
FIG. 7 presents precipitation results of calcium carbonate in the presence of GAP65 and in the presence of other protein (trypsin). SEM images in FIG. 7A indicate the distinct polymorph of calcium carbonate in each treatment.
(§1) 100 μl of 1M CaCl2 was added to 10 ml double distilled water (final concentration: 10 mM). 80 μl from the protein extraction solution (1.2 μg/μl) were added (final concentration ˜10 μg/ml). 100 μl of 1M Na2CO3 (final concentration: 10 mM) was added following an intensive shaking. The vial was centrifuged for 5 min at 4000 rpm, the precipitate was smeared over a glass slide and instantly dried with air flow. […] The observations were confirmed by Raman spectroscopy.
The peak at 560 is attributed to the glass substrate. […] Specific expression of GAP21, GAP22 and GAP65 in several target tissues was checked by means of RT-PCR, similarly as described in Example 2. GAP21 and GAP65 expressions were found in both cuticle related tissues. GAP22 expression was found only in the gastrolith epithelial disc. The cDNA sequences of the corresponding genes were obtained and their deduced proteins were found (FIGS. 13-15). […] GAP12, GAP21 and GAP22, on the other hand, show no significant similarity to any known domain.

Series [2] in a line: Stability of ACC at room temperature by Raman spectroscopy. It is filed as physicochemical. How it is done: The precipitated calcium carbonate was checked over long periods for the amorphous/crystalline state.
as §1

“Also recorded” adds a separate entry of the source.

B1: GAP65: approximately 65 kDa negatively charged glycoprotein from Cherax quadricarinatus gastrolith, SEQ ID NO:1; used as GAP65 enriched fraction (protein, listed as Cherax quadricarinatus)
chain: MIRRVTTPLLALLLAGWVVAQTTDMDPEQYCARRDDEYFRKDFGDPAEFASDYRANCGVYYRCVPAPAGKRSISASQCQSELFFDVQQQICERKSKVTNCEQIDKEHPPQPFWPLREGEESQCKSGEIMCGSGECLPQHRFCDENSDCADGSDENICTPDKDPNRADVCEPRTCLWSQGCFCSVDGTRIPGDLTVDQTPQMITITFTGAINERNFRIFQDVFKDTVKHKGNDCTPKGTFFISHGFSNYSAIQELNRVGHEIAVSSITNNDNPDYWSKLSALDYEAEMDGARLIIEKFANITANEVLGIRVPKQRVGGNRQFRMMVDWGFLYDSSISAPMGRLPLWPYTLMHRMPHKCLGNDQNCPSQNFTVWEMVINEMDRRDDPQFDERLTGCHFVDQCANIQSPEQFRAFLDNNLARHYRTNRAPLGLHFTSGYFETRRDFLREFVKWVRETALSGDYFFVTMQQVINWMEAPTELTAINNFQEWKGKCEVKGQPYCSLPNPCPKKVPRIFPNEEEMFLYTCMECPNTYPWLGDPHGNGFLDIPDF
modifications: glycosylated
notes: used as GAP65 enriched fraction
On to B1, for which, in series [1] (10 mM CaCl2, 10 mM Na2CO3, ~10 μg/ml protein, estimated), the “ACC share of the total CaCO3 precipitated” value is “at least 50%”. Also, the “effect on calcium carbonate precipitation (polymorph obtained)” value in series [1] was “amorphous CaCO3; also recorded: deposition of an amorphous form (ACC)”. In addition, the “time ACC precipitated with GAP65 remained stable” value in series [2] is “at least 1 months”.

B2: trypsin (protein, UniProt P00760 24-246, looked up)
Serine protease 1: IVGGYTCGANTVPYQVSLNSGYHFCGGSLINSQWVVSAAHCYKSGIQVRLGEDNINVVEGNEQFISASKSIVHPSYNSNTLNNDIMLIKLKSAASLNSRVASISLPTSCASAGTQCLISGWGNTKSSGTSYPDVLKCLKAPILSDSSCKSAYPGQITSNMFCAGYLEGGKDSCQGDSGGPVVCSGKLQGIVSWGSGCAQKNKPGVYTKVCNYVSWIKQTIASN
notes: other (inert) protein used as control in the precipitation assay
As for B2, the “effect on calcium carbonate precipitation (polymorph obtained)” value in series [1] is “rapid crystallization”.
